The results in this text go back to patent publication US20030199077.

Data set [1] deals with T1, trypsin inhibitor type IV-0 (Ovo-inhibitor), Sigma T-1886 (UniProt P10184).
T1 sequence: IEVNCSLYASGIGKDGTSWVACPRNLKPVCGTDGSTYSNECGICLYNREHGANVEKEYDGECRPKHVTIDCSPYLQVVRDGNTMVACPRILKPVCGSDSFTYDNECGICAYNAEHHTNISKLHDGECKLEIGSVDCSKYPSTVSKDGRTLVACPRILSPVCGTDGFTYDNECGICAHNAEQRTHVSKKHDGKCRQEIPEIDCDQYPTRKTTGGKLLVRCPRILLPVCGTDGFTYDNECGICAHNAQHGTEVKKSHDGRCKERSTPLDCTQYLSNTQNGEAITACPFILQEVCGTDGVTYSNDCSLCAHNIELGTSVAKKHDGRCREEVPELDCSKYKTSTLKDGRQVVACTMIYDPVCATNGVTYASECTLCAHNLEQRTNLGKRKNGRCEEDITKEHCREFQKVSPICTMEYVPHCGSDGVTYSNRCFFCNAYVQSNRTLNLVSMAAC

Data set [2] concerns the target T2, trypsin inhibitor type IV-0 (Ovo-inhibitor), Sigma T-1886, P10184.
T2 chain: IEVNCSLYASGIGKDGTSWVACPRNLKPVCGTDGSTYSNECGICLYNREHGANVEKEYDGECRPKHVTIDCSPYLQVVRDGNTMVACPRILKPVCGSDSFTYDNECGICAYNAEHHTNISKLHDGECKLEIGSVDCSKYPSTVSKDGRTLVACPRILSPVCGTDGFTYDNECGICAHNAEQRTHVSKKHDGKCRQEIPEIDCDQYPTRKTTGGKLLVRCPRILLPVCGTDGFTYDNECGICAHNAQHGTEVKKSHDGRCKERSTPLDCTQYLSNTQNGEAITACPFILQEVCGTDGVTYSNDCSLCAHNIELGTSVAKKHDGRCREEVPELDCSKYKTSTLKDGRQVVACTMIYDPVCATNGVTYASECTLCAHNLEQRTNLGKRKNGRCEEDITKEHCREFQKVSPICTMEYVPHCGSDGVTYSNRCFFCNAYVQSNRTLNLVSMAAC

Savinase variant S99SD+S99A+A133E had a Residual Activity (%) in data set [1] of 39%.
Savinase variant S99SD+M222S yielded a Residual Activity (%) in data set [1] of 25%.
Regarding Savinase variant S99SD+S99A, the Residual Activity (%) in data set [1] amounted to 27.3%.
Savinase variant S99SD returned a Residual Activity (%) in data set [1] of 25%.
For the molecule Savinase variant S99SD+S99A+S216SDP, the Residual Activity (%) in data set [1] came to 35%.
The molecule “Savinase variant A98AI+A98G+S99H+G100S+S101A” displayed a Residual Activity (%) in data set [1] of 22%.
Turning to Savinase variant S99SN, the Residual Activity (%) in data set [1] was 19%.
As for Savinase variant S99SD+S99A+P129PR, the Residual Activity (%) in data set [1] turned out to be 21%.
Still for that read-out and setting: the figure for Savinase variant S99SD+S99A+D42DN is 69.2%.
The same measure, in the same setting: the result for Savinase variant S99SD+S99A+L217LP reads 97%; that for Savinase variant S99SQ+S99T, 25%.
Molecule Savinase variant S99SD+N76D+A194P+A230V registered a Residual Activity (%) in data set [1] of 18.4%.
Savinase variant S99SD+S99A+S216SP gave a Residual Activity (%) in data set [1] of 29.2%.
Savinase variant S99SR+S99T yielded a Residual Activity (%) in data set [1] of 67.7%.
As to “Savinase variant A98AT+Y167A+R170S+A194P”, the Residual Activity (%) in data set [1] is 88%.
For the molecule Savinase variant S99SD+S99A+T143K, the Residual Activity (%) in data set [1] was found to be 23%.
In turn, Savinase variant S99SD+S99A+P129PD had a Residual Activity (%) in data set [1] of 50%.
Take “Savinase variant S99SD+S99A+L217F+A228V+A230V”: the Residual Activity (%) in data set [1] was 12%.
Same read-out and setting: the result for Savinase variant S99SD+S99A+P131T reads 35.6%; that for Savinase variant S99SE, 27%.

B1: Savinase® (subtilisin 309 from B. lentus, BLSAVI) (protein)
chain: AQSVPWGISRVQAPAAHNRGLTGSGVKVAVLDTGISTHPDLNIRGGASFVPGEPSTQDGNGHGTHVAGTIAALNNSIGVLGVAPSAELYAVKVLGASGSGSVSSIAQGLEWAGNNGMHVANLSLGSPSPSATLEQAVNSATSRGVLVVAASGNSGAGSISYPARYANAMAVGATDQNNNRASFSQYGAGLDIVAPGVNVQSTYPGSTYASLNGTSMATPHVAGAAALVKQKNPSWSNVQIRNHLKNTATSLGSTNLYGSGLVNAEAATR
Regarding B1, the “Residual Activity (%)” value in data set [2] is listed as less than 5%.
